Experimental findings from doi:10.1101/2025.08.08.669345 are described below.

The target in experiment [1] is mouse melanocortin 4 receptor (mouse) (UniProt P56450).
Experiment [2] concerns the target mouse melanocortin 1 receptor (mouse) (UniProt Q01727).
Sequence of UniProt Q01727 (Q01727 whole entry): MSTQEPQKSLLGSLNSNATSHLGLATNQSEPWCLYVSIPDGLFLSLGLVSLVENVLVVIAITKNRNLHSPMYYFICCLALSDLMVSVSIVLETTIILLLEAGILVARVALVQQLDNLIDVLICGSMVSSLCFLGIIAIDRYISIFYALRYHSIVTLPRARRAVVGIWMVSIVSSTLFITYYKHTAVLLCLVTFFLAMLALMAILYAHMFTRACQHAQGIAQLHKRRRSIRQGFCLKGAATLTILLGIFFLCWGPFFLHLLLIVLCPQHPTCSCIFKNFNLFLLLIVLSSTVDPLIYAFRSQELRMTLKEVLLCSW

Sequence of UniProt P56450 (P56450 whole entry): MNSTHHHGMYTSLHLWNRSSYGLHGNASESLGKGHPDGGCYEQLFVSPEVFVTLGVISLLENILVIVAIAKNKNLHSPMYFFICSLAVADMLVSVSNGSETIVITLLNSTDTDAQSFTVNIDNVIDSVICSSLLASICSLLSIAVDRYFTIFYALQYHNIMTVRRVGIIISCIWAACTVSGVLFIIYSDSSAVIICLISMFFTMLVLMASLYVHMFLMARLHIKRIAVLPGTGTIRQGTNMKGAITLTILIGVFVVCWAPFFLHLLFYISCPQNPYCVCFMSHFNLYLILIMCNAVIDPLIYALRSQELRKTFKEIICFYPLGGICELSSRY

The substance “α-melanocyte-stimulating hormone (peptide)” had an EC50 of cAMP production (EPAC BRET sensor), HEK293 cells expressing mMC4R, 3 min in experiment [1] of 11.5 nM. In experiment [2], this substance returned an EC50 of cAMP production (EPAC BRET sensor), HEK293 cells expressing mMC1R, 3 min of 4.8 nM.
